This is an account of results in patent publication US20190194358A1 (ARIZONA BOARD OF REGENTS A BODY CORPORATE OF THE STATE OF …, published 2019).

The target in test [1] is T1, SC1 Transcription factor 19 (human, UniProt Q9Y242).
T1 construct: GST fusion on the array
T1 sequence (looked up): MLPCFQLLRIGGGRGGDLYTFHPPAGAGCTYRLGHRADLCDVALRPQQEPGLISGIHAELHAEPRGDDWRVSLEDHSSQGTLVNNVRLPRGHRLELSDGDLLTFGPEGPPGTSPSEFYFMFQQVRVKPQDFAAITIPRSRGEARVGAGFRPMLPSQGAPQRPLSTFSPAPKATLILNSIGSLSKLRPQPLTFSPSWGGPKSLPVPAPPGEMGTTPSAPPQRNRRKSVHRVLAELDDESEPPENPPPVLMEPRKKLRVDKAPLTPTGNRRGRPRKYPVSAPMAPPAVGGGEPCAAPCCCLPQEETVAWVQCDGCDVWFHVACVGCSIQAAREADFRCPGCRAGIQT
As to the kind of experiment: Invitrogen ProtoArray Human Protein Microarray v4.0; biotinylated synbody, fluorescently labelled streptavidin; fluorescence intensity.
Description: (§1) The prescribed cover slip was placed over the array and adjusted to remove air bubbles. The array was incubated in a 50 ml conical tube, printed side up, for 1.5 hours at 4 C without shaking. The array was then removed from the conical tube inserted diagonally into the array chamber, kept on ice. 8 ml probing buffer was added to the chamber wall. The cover slip was removed and the array was incubated in probing buffer for 1 minute on ice. The probing buffer was decanted and drained. Two further washings were performed adding 8 ml probing buffer, incubating on ice for 1 minute, and decanting and draining. 5 nM fluorescently labeled streptavidin diluted in 6 ml probing buffer was incubated on the array for 30 minutes on ice in the dark, after which the solution was decanted and drained. Three wash steps were performed, each by adding 8 ml probing buffer, incubating for 1 minute on ice, decanting, and draining. The array was removed from the chamber, centrifuged at 800×g for 5 minutes at room temperature. The array was dried in the dark for 60 minutes at room temperature, after which it was scanned using a fluorescent microarray scanner and data was taken and analyzed.

For a further test, the target named is T2, PSMA3 (human, UniProt P25788).
T2 construct: GST fusion on the array
T2 sequence (P25788 whole entry, the tested form may be a part): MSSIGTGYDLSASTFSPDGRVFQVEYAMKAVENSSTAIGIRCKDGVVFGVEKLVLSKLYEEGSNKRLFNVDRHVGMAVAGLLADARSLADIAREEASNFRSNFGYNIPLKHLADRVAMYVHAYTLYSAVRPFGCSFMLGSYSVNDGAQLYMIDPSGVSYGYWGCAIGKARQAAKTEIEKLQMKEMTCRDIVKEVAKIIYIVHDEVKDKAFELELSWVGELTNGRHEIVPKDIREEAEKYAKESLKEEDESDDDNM
The test is described as above.

The target in a further test is T3, GRP58 (human, UniProt P30101 25-505, limits assumed).
T3 construct: GST fusion adsorbed on a nitrocellulose slide
T3 sequence (looked up): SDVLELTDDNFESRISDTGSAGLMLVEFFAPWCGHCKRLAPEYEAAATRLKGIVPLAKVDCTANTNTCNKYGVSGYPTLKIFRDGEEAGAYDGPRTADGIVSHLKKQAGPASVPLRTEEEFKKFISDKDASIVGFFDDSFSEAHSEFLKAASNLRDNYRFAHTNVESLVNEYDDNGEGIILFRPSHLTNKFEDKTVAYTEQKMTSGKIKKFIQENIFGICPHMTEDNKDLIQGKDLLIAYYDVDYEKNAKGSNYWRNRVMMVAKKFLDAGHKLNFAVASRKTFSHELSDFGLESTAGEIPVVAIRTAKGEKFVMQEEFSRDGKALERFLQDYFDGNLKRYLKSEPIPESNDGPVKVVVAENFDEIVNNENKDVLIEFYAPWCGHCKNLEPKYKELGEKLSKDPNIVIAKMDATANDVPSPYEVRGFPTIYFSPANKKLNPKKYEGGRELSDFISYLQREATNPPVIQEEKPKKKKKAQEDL
The description is as above.

Test [2] has as its target T4, transferrin (human, UniProt P02787 20-698).
T4 construct: also called TRF; pooled human transferrin (Sigma)
The test can be described thus: SPR (Biacore A-100), biotinylated transferrin captured on Neutravidin, unpurified peptide injected for 60 s.

The target in test [3] is T4, transferrin. The description is as above. The source holds these as a separate data set.
In test [4] the target is T5, Tumor Necrosis Factor-alpha (UniProt P01375 77-233).
T5 construct: Immobilised on pipette tips or SPR chips (amine coupling or biotin capture); also called TNF-α; TNF-alpha
T5 sequence (P01375 77-233 limits assumed): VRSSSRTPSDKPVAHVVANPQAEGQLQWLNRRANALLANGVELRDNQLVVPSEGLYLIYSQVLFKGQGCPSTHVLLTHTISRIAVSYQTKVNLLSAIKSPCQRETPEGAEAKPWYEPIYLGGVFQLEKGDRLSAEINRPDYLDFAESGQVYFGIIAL
The test can be described thus: SPR, kinetic fits of sensorgrams.

Test [5] deals with T5, Tumor Necrosis Factor-alpha. The test can be described thus: SPR (Biacore A100), TNF-α captured, equilibrium response over a concentration series.
Description: (§2) Point-mutant libraries were prepared in 96-well stock plates From the stock plate, peptides were diluted to 50 μM concentration in Biacore HBS-EP buffer (GE Healthcare, Piscataway, N.J.) containing 1 mg/ml carboxymethyl-dextran (Sigma-Aldrich, St. Louis, Mo.) to reduce non-specific binding to the CM-5 SPR chip surface. TNF-αt was captured on a CM-5 chip surface at different capture levels on spots 1, 2, 4, and 5 across all four flow cells corresponding to a 40-200 RU range of predicted Rₘₐₓ binding responses. Spot 3 contained only immobilized neutravidin and served as a reference spot.
(§3) Purified point-mutant affinities were measured on the Biacore A100 using SPR equilibrium binding response across a series of peptide concentrations on an SPR chip with TNF-α captured as described above.
Test [6] has the same target. As to the kind of experiment: SPR-derived binding energies.
The target is the same in test [7]. The test can be described thus: fluorescence anisotropy; fluorescence anisotropy.
For test [8] the target is unchanged. As to the kind of experiment: SPR, kinetic fits of several sensorgrams; Kd from kinetic fits, not equilibrium responses.
Test [9] has the same target. As to the kind of experiment: SPR, kinetic fits of sensorgrams (printed 'kon' in a sentence on the off-rate).
Test [10] shares this target. As to the kind of experiment: SPR (Biacore A100), TNF-α captured, equilibrium response over a concentration series. The source holds these as a separate data set.
Description: as §2, §3
The target is the same in test [11]. The test can be described thus: SPR; reference TNF1 lead peptide.
Description: as §2, §3
The target is the same in test [12]. As to the kind of experiment: SPR (Biacore A100), TNF-α captured, equilibrium response over a concentration series; the cell prints '93', read as 9.3 (decimal point lost).
Description: as §2, §3
The target in test [13] is T4, transferrin. As to the kind of experiment: SPR (Biacore A-100), biotinylated transferrin captured on Neutravidin, unpurified peptide injected for 60 s. The source holds these as a separate data set.
The target of test [14] is T4, transferrin. The test is described as above. This is another data set of the same source.
Test [15] addresses T4, transferrin. As to the kind of experiment: SPR (Biacore T100), transferrin immobilised.
Excerpt: (§4) Affinity plots were generated for each peptide and fit using a steady state affinity model.
Test [16] has as its target T4, transferrin. As to the kind of experiment: SPR (Biacore T100), transferrin immobilised (9758 RU), steady state affinity fit.
Excerpt: as §4
Test [17] concerns the target T4, transferrin. The test can be described thus: affinity characterisation of Example 29 (SPR; format for the purified peptides not stated).
In test [18] the target is T4, transferrin. The test can be described thus: reference TRF26 lead peptide.
Test [19] addresses T4, transferrin. The test can be described thus: SPR, transferrin immobilised, Kd from kinetics.
Excerpt: Flow rates and contact times are adjusted as necessary to provide the surface concentration of target desired for the intended application, and may vary by target. In general, for evaluating whether binding occurs, it is preferable to immobilize a relatively large quantity of target, and higher flow rates and/or longer contact times may be used. For determining kinetics, it is preferable to limit the amount of target immobilized so as to minimize rebinding and avidity effects, and lower flow rates and/or contact times may be used.
Test [20] addresses T4, transferrin. The test can be described thus: SPR (Biacore A-100), biotinylated transferrin captured on Neutravidin, unpurified peptide injected for 60 s. This is another data set of the same source.
In another test the target is albumin. The test can be described thus: SPR.
Test [21] addresses T4, transferrin. As to the kind of experiment: SPR (Biacore A-100), biotinylated transferrin captured on Neutravidin, unpurified peptide injected for 60 s. This is another data set of the same source.
For test [22], the target named is T4, transferrin. The test can be described thus: SPR (Biacore A-100), purified peptide at several concentrations, equilibrium.
Excerpt: A Biacore A-100 Surface Plasmon Resonance (SPR) system was used to measure the binding response of each peptide to several different target proteins immobilized on a gold surface. The A-100 has four different flow cells and within each flow cell are five addressable spots. Therefore four different proteins and a negative control reference can be used per flow cell. […] Sensorgrams are collected from each immobilized protein, so a binding profile for each analyte versus each of the protein targets is generated for each injection. Target proteins were immobilized using a biotin capture approach in which a CM5 chip was activated using standard amine coupling chemistry and Neutravidin was covalently coupled to the chip. Each biotinylated protein was injected over a single spot and the amount of protein captured was measured. In this manner four proteins were immobilized per flow cell. In this example, the same four proteins were captured in all four flow cells for this experiment.
Test [23] deals with T5, Tumor Necrosis Factor-alpha. As to the kind of experiment: SPR (Biacore T-100), TNF-α amine-coupled to a CM5 chip, synbody concentration series.
Description: Candidate TNF-α binding synbodies were screened by surface plasmon resonance (SPR) on a Biacore T-100 SPR instrument to verify binding for TNF-α. A CM5 chip was activated using standard amine coupling chemistry and TNF-α was immobilized. Each synbody was prepared in HBS—N buffer with excess carboxymethyl dextran added to the running buffer to minimize non-specific binding to the chip surface.
Test [24] deals with T4, transferrin. As to the kind of experiment: SPR (Biacore A-100), biotinylated transferrin captured on Neutravidin, unpurified peptide injected for 60 s. This is another data set of the same source.
The target in test [25] is T4, transferrin. Described as above. This is another data set of the same source.
The target of test [26] is T4, transferrin. The test is described as above. The source holds these as a separate data set.

Like-named read-outs stand apart in the source and are kept apart here. Ends that are not written are not given here.

T4 sequence (P02787 20-698 limits assumed): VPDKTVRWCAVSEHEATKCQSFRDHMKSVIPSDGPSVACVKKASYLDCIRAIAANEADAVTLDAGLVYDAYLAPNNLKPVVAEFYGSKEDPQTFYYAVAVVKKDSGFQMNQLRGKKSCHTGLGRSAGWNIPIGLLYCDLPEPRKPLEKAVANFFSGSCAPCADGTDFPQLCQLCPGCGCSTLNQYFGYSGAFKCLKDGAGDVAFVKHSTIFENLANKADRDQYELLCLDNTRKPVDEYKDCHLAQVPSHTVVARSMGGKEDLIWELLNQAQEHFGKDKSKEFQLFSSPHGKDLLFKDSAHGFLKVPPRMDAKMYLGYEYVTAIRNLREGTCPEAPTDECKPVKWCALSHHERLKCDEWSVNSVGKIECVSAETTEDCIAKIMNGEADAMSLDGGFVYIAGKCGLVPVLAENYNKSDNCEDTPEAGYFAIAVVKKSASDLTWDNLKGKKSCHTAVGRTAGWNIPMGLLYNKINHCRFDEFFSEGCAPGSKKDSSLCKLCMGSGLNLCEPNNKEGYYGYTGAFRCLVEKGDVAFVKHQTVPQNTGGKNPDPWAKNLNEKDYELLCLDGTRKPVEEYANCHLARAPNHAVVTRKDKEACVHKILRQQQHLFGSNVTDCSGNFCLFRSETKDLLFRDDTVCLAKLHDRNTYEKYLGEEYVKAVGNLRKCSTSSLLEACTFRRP
Description for GRP58: as §1
Description for PSMA3: as §1

B1: SYN21-22 (designed binder)
peptide 1: QYHHFMNLKRQGRAQAYGSG
peptide 2: HAYKGPGDMRRFNHSGMGSG
modifications: also: both chains joined by C-terminus to the amines of a branching Lys, Lys-Cys linker with biotinylated Cys thiol
notes: Lysine linker followed by cysteine; the thiol of the cysteine biotinylated for the protein array; also called anti-TRF synbody
B1: the binding result (in test [1]; in the test with PSMA3; with GRP58) was “binds” throughout. On to TEDNDYMVVSMVVTMEPGSC (Unpurified library peptide) [peptide of FIG. 60L], for which the binding result with transferrin [2] was “binds”. On to DNSRRSAKQRIFMHVDLGSC (Unpurified library peptide) [peptide of FIG. 60G], for which, in the test with transferrin [3], the binding result is “binds”. FERDPLMMPWSFLQSRQGSC [TNF1 lead peptide] registered an off-rate constant (koff) in test [4] of 1.6 s⁻¹. Also, in test [5], the “Binding ΔG” value is -5.21 kcal/mol and the Kd was 160 µM. With FERSYLKMPWKFLQSRQGSC [TNF1-opt (D4S+P5Y+M7K+S11K quadruple mutant)], in test [6], the “difference in observed binding energy relative to D4S+P5Y+S11K” value is -0.94 kcal/mol, the “difference in observed binding energy relative to P5Y+M7K” value is -1.73 kcal/mol and the “difference in observed binding energy relative to P5Y+S11K” value is -1.66 kcal/mol. In [7], this molecule yielded a dissociation constant Kd of 1.1 µM. In test [8], this molecule showed a Kd of 0.7 µM. Moreover, in test [9], the koff came to 0.2 s⁻¹. Besides, in test [10], binding was put at a Kd of 1.6 µM and the “Observed Binding ΔG” value is -7.97 kcal/mol. Also, in [11], the “Kd Fold-Change Relative to Lead” value was found to be 100 fold.

For FERYPLMMPWKFLQSRQGSC [TNF1 D4Y+S11K double mutant], the Kd in test [12] worked out at 9.3 µM. The “Observed Binding ΔG” value in test [10] is -6.67 kcal/mol. In addition, in test [11], the “Kd Fold-Change Relative to Lead” value came out at 17 fold. Turning to KMRTITYYHLQAILKQRGSC (Unpurified library peptide) [peptide of FIG. 60F], the binding result in the test with transferrin [13] is given as “binds”.

For DFLWSKSGILSHASWNHGSC (Unpurified library peptide) [peptide of FIG. 60D], the binding result with transferrin [14] is “binds”.

B2: TBPM023 (peptide)
peptide: AHKVVPQRQMRHAYSRYGSC
notes: Clone from mRNA display on a doped TRF26 library; also called TBPMO23
With B2, the “fold improvement in affinity relative to TRF26” value with transferrin [15] is more than 10 fold. This molecule yielded a Kd with transferrin [16] of 11.6 µM.

B3: TRF26 P6Y+H12F double mutant (peptide)
peptide: AHKVVYQRQIRFAYNRYGSC
notes: also called P6Y + 1112F (so in the source)
As to B3, in the test with transferrin [17], the equilibrium dissociation constant (Kd) was determined as 0.5 µM. For the same molecule, the “Kd Fold-Change Relative to Lead” value in the test with transferrin [18] worked out at 190 fold.

B4: synbody comprising TRF-26 and TRF-23 (Example 9, lysine-linked) (designed binder)
peptide 1: AHKVVPQRQIRHAYNRYGSG
peptide 2: FRGWAHIFFGPHVIYRGGSG
modifications: not fully specified (bridges); also: C-termini joined to alpha or epsilon amines of branching Lys, orientation not given here, followed by C-terminal Cys, Gly or Ala, not given here which
notes: probably the same construct family as SYN23-26
For B4, the Kd with transferrin [19] turned out to be 0.15 µM.

With DRDTPWETTNKTEEGIEGSC (Unpurified library peptide) [peptide of FIG. 60J], in the test with transferrin [20], the binding result is given as “binds”.

B5: linker-optimized BP1/BP2 DNA-linked synbody (BP1 on the template strand, BP2 at position 13 from the 3' end of the variable strand) (designed binder)
peptide 1: GTEKGTSGWLKTGSC
peptide 2: EGEWTEGKLSLRGSC
modifications: not fully specified (some residues); cysteine pairing not given here; also: DNA strands hybridised
notes: The two peptide-DNA conjugates are held together by hybridisation of the DNA strands; also called Gal80 synbody; BP1-BP2 containing synbody
For B5, the “Kd relative to the Kd for gal80 (fold)” value with albumin is more than 1000 fold. Take QENDQQSFGLGGMMGQAGSC (Unpurified library peptide) [peptide of FIG. 60K]: the binding result with transferrin [21] was “binds”.

B6: TRF101 (peptide)
peptide: ARDLLIQKNSGQDVDHRGSC
notes: Screened unpurified, then resynthesised and HPLC purified
B6: the Kd with transferrin [22] was 78.9 µM.

B7: TNF1-TNF4-KC-stBu (designed binder)
peptide 1: MKSIIPMSVAQHQGPIKGSG
peptide 2: FMNYPIKVPILVVPIGRGSG
modifications: not fully specified (C-terminus, bridges); also: chain 1 C-terminus on Lys α-amine, chain 2 C-terminus on same Lys ε-amine (branched dimer)
notes: Lysine linker followed by Cys(StBu); also called TNFa1-TNFa 4- KC(stBu)
Regarding B7, the binding result in test [23] is recorded as “no binding”. For WMDDIDAPQDEWWVFHHGSC (Unpurified library peptide) [peptide of FIG. 60C], the binding result with transferrin [24] is “binds”. For AMMRMDMAGLNKIVFHQGSC (Unpurified library peptide) [peptide of FIG. 60I], the binding result with transferrin [25] is on record as “binds”.

B8: peptide of FIG. 60B (peptide)
peptide: NIRMLLRFTVFPAQKLIGSC
notes: Unpurified library peptide (~50 to 70% pure)
For the molecule B8, the binding result in the test with transferrin [26] was “binds”.
